Source: US20100093602A1 (CASE WESTERN RESERVE UNIVERSITY, published 2010)

B1: human N-cadherin-Fc (R&D Systems) (Fc fusion, UniProt P19022 160-724, looked up)
chain: DWVIPPINLPENSRGPFPQELVRIRSDRDKNLSLRYSVTGPGADQPPTGIFIINPISGQLSVTKPLDREQIARFHLRAHAVDINGNQVENPIDIVINVIDMNDNRPEFLHQVWNGTVPEGSKPGTYVMTVTAIDADDPNALNGMLRYRIVSQAPSTPSPNMFTINNETGDIITVAAGLDREKVQQYTLIIQATDMEGNPTYGLSNTATAVITVTDVNDNPPEFTAMTFYGEVPENRVDIIVANLTVTDKDQPHTPAWNAVYRISGGDPTGRFAIQTDPNSNDGLVTVVKPIDFETNRMFVLTVAAENQVPLAKGIQHPPQSTATVSVTVIDVNENPYFAPNPKIIRQEEGLHAGTMLTTFTAQDPDRYMQQNIRYTKLSDPANWLKIDPVNGQITTIAVLDRESPNVKNNIYNATFLASDNGIPPMSGTGTLQIYLLDINDNAPQVLPQEAETCETPDPNSINITALDYDIDPNAGPFAFDLPLSPVTIKRNWTITRLNGDFAQLNLKIKFLEAGIYEVPIIITDSGNPPKSNISILRVKVCQCDSNGDCTDVDRIVGAGLGTGA
notes: also called N-cadherin substrate; purified N-cadherin substrate; not shown: Fc part of the bought fusion

Key:
[1] = biological target: B1; assay: cell-based or functional assay
[2] = biological target: T1, N-cadherin expressed on human glioblastoma LN-229 cells (human, UniProt P19022 160-906); assay: cell adhesion assay: LN-229 cells on spots of N-cadherin-Fc on nitrocellulose-coated dishes; this is the pair whose adhesion ADH-1 reduces
T1 construct: whole, on cells
T1 sequence (looked up): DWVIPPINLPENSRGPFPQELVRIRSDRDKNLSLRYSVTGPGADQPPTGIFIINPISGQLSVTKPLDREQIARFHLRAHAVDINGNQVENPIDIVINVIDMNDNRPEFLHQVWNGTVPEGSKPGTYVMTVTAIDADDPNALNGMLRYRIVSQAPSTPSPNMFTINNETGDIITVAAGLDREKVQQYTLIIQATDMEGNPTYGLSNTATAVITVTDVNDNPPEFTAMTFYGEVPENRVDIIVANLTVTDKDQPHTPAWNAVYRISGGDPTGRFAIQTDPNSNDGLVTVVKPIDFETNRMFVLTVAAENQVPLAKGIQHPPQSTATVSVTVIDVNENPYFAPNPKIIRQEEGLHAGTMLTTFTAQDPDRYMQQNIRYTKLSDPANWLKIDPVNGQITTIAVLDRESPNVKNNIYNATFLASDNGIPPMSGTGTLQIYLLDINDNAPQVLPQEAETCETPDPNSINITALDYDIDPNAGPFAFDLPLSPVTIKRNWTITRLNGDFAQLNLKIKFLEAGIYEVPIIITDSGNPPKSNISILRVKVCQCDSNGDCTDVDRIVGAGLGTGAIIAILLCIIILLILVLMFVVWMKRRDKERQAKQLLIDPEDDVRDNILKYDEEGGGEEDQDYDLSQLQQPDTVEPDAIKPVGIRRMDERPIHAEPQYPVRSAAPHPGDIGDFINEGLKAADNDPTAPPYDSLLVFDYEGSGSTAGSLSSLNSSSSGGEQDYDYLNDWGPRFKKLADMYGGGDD
Protocol: Sterile 35 mm tissue culture dishes were coated with nitrocellulose in methanol and allowed to dry. Distinct spots, containing 50 ng of either purified Laminin (Sigma) or N-cadherin-Fc (R&D Systems), were made by spotting 10 μl of protein solution on the nitrocellulose-coated tissue culture dishes. Each dish contained two distinct spots of both Laminin and N-cadherin-Fc. After a 20-min incubation at room temperature, the protein solutions were aspirated. Remaining binding sites on the nitrocellulose were blocked with 2% BSA in PBS, and the dishes were rinsed with DMEM (Invitrogen).
4×10⁵ cells were added to each tissue culture dish in the presence of N-cadherin peptidomimetic small molecules, reconstituted in either DMSO or 0.3% cyclodextrin, and diluted in DMEM supplemented with 10% fetal bovine serum (HyClone). In the control experiments, either DMSO or cyclodextrin was added with LN-229 cells in the absence of the peptidomimetic small molecules. The cells were allowed to adhere to the protein substrate for 2 hours at 37° C., 5% CO₂. After incubation, the medium was removed and the tissue culture dishes were rinsed once with PBS to remove any unattached cells. Cells were fixed with 4% PFA, 0.01% glutaraldehyde in PEM buffer for 10 minutes at room temperature and rinsed once in PBS prior to imaging.

In the case of Ac-CHAVC-NH2 (also: cyclic peptide, cyclising bond not given here) [ADH-1 (short cyclic HAV peptide N-Ac-CHAVC-NH2)], the “IC50 for inhibition of RGC neurite outgrowth” value [1] is reported as 2330 µM.

B1: binds [2].
